Reference: US20240166767A1 (SCIRHOM, published 2024)

Biological target: T1, endogenous human iRhom1 (RH-30 cells) (human, UniProt Q96CC6 1-855)
T1 construct: RH-30 cells are described as endogenously negative for iRhom2 but endogenously expressing iRhom1; also called iRhom1 endogenously expressed by RH-30 cells
T1 sequence: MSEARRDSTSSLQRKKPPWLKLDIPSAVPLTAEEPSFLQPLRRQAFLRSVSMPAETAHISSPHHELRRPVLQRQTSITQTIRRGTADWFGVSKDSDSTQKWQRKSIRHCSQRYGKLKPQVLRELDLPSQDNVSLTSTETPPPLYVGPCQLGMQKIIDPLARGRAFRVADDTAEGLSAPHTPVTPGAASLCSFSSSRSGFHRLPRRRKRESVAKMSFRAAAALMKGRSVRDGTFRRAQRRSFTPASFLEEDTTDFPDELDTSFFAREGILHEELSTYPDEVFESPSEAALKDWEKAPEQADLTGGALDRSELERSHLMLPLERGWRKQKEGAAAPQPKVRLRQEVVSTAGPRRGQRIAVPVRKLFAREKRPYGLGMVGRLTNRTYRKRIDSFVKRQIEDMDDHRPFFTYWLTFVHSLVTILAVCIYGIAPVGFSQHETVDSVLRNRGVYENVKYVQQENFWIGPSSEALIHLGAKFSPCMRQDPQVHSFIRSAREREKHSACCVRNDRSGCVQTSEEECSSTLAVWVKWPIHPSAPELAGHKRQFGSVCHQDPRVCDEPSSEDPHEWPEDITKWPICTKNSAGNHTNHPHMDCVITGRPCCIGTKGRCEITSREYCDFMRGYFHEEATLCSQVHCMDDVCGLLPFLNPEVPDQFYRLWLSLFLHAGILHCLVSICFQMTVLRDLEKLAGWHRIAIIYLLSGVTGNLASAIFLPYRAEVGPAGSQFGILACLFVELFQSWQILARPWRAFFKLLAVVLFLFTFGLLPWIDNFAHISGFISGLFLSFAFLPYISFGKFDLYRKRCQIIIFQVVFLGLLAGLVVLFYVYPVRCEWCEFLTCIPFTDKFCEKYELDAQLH
Test: FACS on RH-30 cells (endogenously negative for iRhom2, endogenously expressing iRhom1)
Experimental: In brief, human RPMI-8226 cells (Deutsche Sammlung von Mikroorganismen und Zellkulturen, Germany), THP-1 cells (American Type Culture Collection, USA) and RH-30 cells (Deutsche Sammlung von Mikroorganismen und Zellkulturen, Germany) were harvested with 10 mM EDTA in PBS, washed and resuspended in FACS buffer (PBS, 3% FBS, 0.05% sodium azide), and seeded in Nunc U-bottom 96-well plates (Thermo Fisher Scientific, USA) at approximately 2×10⁵ cells per well. In order to pellet cells and remove supernatants, the plates were centrifuged at 1,500 rpm and 4° C. for 3 minutes. For primary staining, cells were resuspended in 100 μl per well of either FACS buffer alone (controls) or […] of the antibodies of the invention in FACS buffer and incubated on ice for 1 hour. Afterwards, plates were centrifuged at 1,500 rpm and 4° C. for 3 minutes and washed twice with 200 μl per well of FACS buffer. For secondary staining, cells were spun down and resuspended in 100 μl per well of PE-conjugated goat anti-human IgG F(ab′)2 detection fragment (Dianova, Germany) diluted 1:100 in FACS buffer. Protected from light, the cell suspensions were incubated on ice for 1 hour. […] Finally, cells were resuspended in 150 μl per well of FACS buffer and analyzed using a BD Accuri™ C6 Plus flow cytometer (Becton Dickinson, Germany).

B1: humanized antibody 42-B-02 (antibody, V domains shown)
VH: QVTLRESGPALVKPTQTLTLTCTFSGFSLSTFGRGVGWIRQPPGKALEWLAHIWWDDEKYYNSALKSRLTISKDTSKNQVVLTITNMDPVDTATYYCARIQNYGSNYWYFDVWGQGTLVTVSS
VL: AIQLTQSPSSLSASVGDRVTITCRASSRISYMFWYQQKPGKAPKVLIYDTSNLASGVPSRFSGSGSGTDYTLTISSLQPEDFATYYCQQWNSYPLTFGQGTKLEIK
notes: Tested as whole humanized antibody from transient expression of heavy chain/kappa light chain pairs in CHO cells, detected with anti-human IgG; the general methods speak of human IgG1/Kappa; also called clone 42-B-02
binding result: no binding (tested: 3 µg/ml)
